In the Human Domainome abundance scans (Beltran et al. 2025):
± gives the uncertainty stated by the source.

B1: Poly(rC)-binding protein 1, residues 278 to 350; numbered along this chain, Q15365 (parent)
chain: TQTTHELTIPNNLIGCIIGRQGANINEIRQMSGAQIKIANPVEGSSGRQVTITGSAASISLAQYLINARLSSE

Variants of: B1
Assay: abundance fitness (aPCA) (normalised: wild type 0, dead -1); higher = more abundant; growth selection in yeast, the domain comes from the species named
Details: Homo sapiens

Variant	abundance fitness
A62D	-0.711 ± 0.24
A62N	-0.828 ± 0.4
A62M	-0.948 ± 0.16
A62T	-0.794 ± 0.12
A62P	-0.606 ± 0.1
A62C	-0.768 ± 0.23
A62K	-0.888 ± 0.14
A62W	-0.882 ± 0.31
A62V	-0.448 ± 0.07
A62F	-0.657 ± 0.26
A62R	-0.734 ± 0.083
A62Q	-0.78 ± 0.29
A62E	-0.902 ± 0.15
A62G	-0.622 ± 0.071
I66A	-0.438 ± 0.1
I66P	-0.459 ± 0.15
I66V	-0.285 ± 0.1
I66H	0.299 ± 0.49
I66C	-0.188 ± 0.2
I66L	-0.076 ± 0.13
I66M	-0.094 ± 0.16
I66G	-0.594 ± 0.13
I66W	-1.2 ± 0.35
I66F	-0.414 ± 0.22

Variant	abundance fitness
I66Q	-1.16 ± 0.46
I66R	-0.996 ± 0.23
I66S	-0.721 ± 0.2
L65R	-0.689 ± 0.1
L65S	-0.582 ± 0.13
L65P	-0.779 ± 0.25
L65E	-0.191 ± 0.08
L65V	-0.789 ± 0.18
L65K	-0.422 ± 0.25
L65D	-0.419 ± 0.23
L65A	0.076 ± 0.056
L65Y	-0.093 ± 0.13
L65T	-0.462 ± 0.14
L65G	-0.416 ± 0.056
L65W	-0.166 ± 0.066
L65Q	-0.442 ± 0.14
L65M	-0.36 ± 0.18
A56D	-0.029 ± 0.06
A56L	0.026 ± 0.051
A56H	-0.027 ± 0.089
A56N	-0.078 ± 0.078
A56V	-0.072 ± 0.047
A56F	0.032 ± 0.11
A56W	-0.269 ± 0.052

Variant	abundance fitness
A56C	-0.102 ± 0.07
A56E	-0.044 ± 0.047
A56T	0.026 ± 0.066
A56G	-0.077 ± 0.034
A56I	-0.024 ± 0.11
A56Y	-0.245 ± 0.091
A56Q	0.076 ± 0.062
A56K	0.029 ± 0.055
A56R	-0.039 ± 0.035
A56M	0.081 ± 0.062
L70M	-0.228 ± 0.26
L70V	-0.05 ± 0.15
L70R	-0.53 ± 0.22
L70W	-0.521 ± 0.29
L70N	-0.465 ± 0.48
L70P	-0.499 ± 0.25
L70K	-0.378 ± 0.46
L70S	-0.614 ± 0.34
L70I	-0.217 ± 0.36
G54M	-1.02 ± 0.26
G54A	-0.916 ± 0.083
G54L	-0.877 ± 0.12
G54Y	-1.08 ± 0.46
G54T	-0.854 ± 0.12

Variant	abundance fitness
G54F	-0.507 ± 0.25
G54P	-0.805 ± 0.12
G54W	-0.912 ± 0.14
G54C	-0.85 ± 0.18
G54H	-0.465 ± 0.21
G54E	-0.838 ± 0.13
G54S	-0.881 ± 0.11
G54Q	-1.11 ± 0.29
G54K	-0.804 ± 0.18
G54D	-0.834 ± 0.19
V50F	-0.602 ± 0.19
V50M	-0.202 ± 0.056
V50I	0.047 ± 0.088
V50T	-0.901 ± 0.17
V50C	-0.147 ± 0.093
V50E	-0.714 ± 0.12
V50G	-0.865 ± 0.089
V50D	-0.796 ± 0.25
V50W	-0.989 ± 0.2
V50A	-0.639 ± 0.089
V50Y	-0.57 ± 0.46
V50L	-0.069 ± 0.035
V50K	-0.7 ± 0.14
V50R	-0.818 ± 0.11

Variant	abundance fitness
V50N	-0.819 ± 0.25
V50H	-0.596 ± 0.35
V50S	-0.882 ± 0.16
S58E	0.052 ± 0.038
S58V	-0.568 ± 0.052
S58W	-0.949 ± 0.11
S58Q	0.08 ± 0.045
S58M	-0.354 ± 0.06
S58N	0.009 ± 0.14
S58T	-0.241 ± 0.051
S58F	-0.149 ± 0.14
S58I	-0.988 ± 0.43
S58K	-0.3 ± 0.06
S58G	-0.227 ± 0.035
S58P	-0.47 ± 0.082
S58D	0.009 ± 0.068
S58L	-0.801 ± 0.076
S58C	-0.241 ± 0.076
T51W	-0.063 ± 0.058
T51D	-0.542 ± 0.22
T51N	-0.427 ± 0.23
T51G	-0.574 ± 0.065
T51M	-0.066 ± 0.043
T51E	-0.097 ± 0.038

Variant	abundance fitness
T51S	-0.02 ± 0.042
T51C	0.024 ± 0.085
T51K	0.005 ± 0.052
T51Q	-0.088 ± 0.048
T51F	-0.071 ± 0.12
T51Y	-0.07 ± 0.099
T51L	-0.034 ± 0.037
T51V	-0.027 ± 0.033
T51I	-0.107 ± 0.11
T51H	-0.287 ± 0.17
T51P	-0.682 ± 0.11
T51R	-0.054 ± 0.043
A57Q	0.068 ± 0.065
A57F	-0.096 ± 0.12
A57I	-0.127 ± 0.14
A57R	0.059 ± 0.035
A57W	-0.247 ± 0.055
A57N	0.061 ± 0.086
A57Y	-0.194 ± 0.12
A57C	-0.035 ± 0.077
A57E	0.088 ± 0.05
A57G	-0.126 ± 0.037
A57H	0.051 ± 0.11
A57M	-0.204 ± 0.069

Variant	abundance fitness
A57V	-0.243 ± 0.046
A57D	0.074 ± 0.071
A57L	-0.327 ± 0.055
A57T	-0.125 ± 0.056
A57K	0.116 ± 0.051
A57P	-0.02 ± 0.053
A57S	0.016 ± 0.042
S71D	-0.044 ± 0.1
S71A	-0.037 ± 0.051
I52W	-1.02 ± 0.16
I52P	-0.698 ± 0.15
I52S	-0.574 ± 0.09
I52H	-0.927 ± 0.29
I52L	-0.039 ± 0.037
I52C	-1.03 ± 0.27
I52N	-0.878 ± 0.47
I52K	-0.631 ± 0.098
I52V	-0.218 ± 0.037
I52T	-0.739 ± 0.15
I52R	-0.996 ± 0.1
I52F	-0.694 ± 0.26
I52Y	-1.09 ± 0.39
I52E	-0.732 ± 0.097
I52M	-0.225 ± 0.053

Variant	abundance fitness
I52G	-1.05 ± 0.1
I52D	-0.583 ± 0.25
S60E	0.124 ± 0.042
S60P	-0.635 ± 0.084
S60K	-0.047 ± 0.063
S60F	-0.102 ± 0.12
S60D	0.191 ± 0.061
S60Q	0.023 ± 0.058
S60H	0.051 ± 0.084
S60T	0.012 ± 0.046
S60L	-0.354 ± 0.075
S60V	-0.352 ± 0.073
S60Y	-0.298 ± 0.11
S60G	-0.05 ± 0.034
S60I	-0.337 ± 0.22
S60A	-0.064 ± 0.037
S60C	-0.098 ± 0.062
N67V	-0.504 ± 0.11
N67H	-0.146 ± 0.13
N67A	-0.152 ± 0.079
N67K	-0.137 ± 0.12
N67D	0.066 ± 0.099
N67T	-0.148 ± 0.12
N67P	-0.782 ± 0.26

Variant	abundance fitness
N67L	-0.18 ± 0.079
N67Y	0.002 ± 0.13
N67W	-0.208 ± 0.078
N67I	-0.194 ± 0.22
N67G	-0.082 ± 0.051
N67M	-0.135 ± 0.089
N67Q	-0.32 ± 0.11
N67C	-0.193 ± 0.26
N67S	-0.019 ± 0.072
N67R	-0.147 ± 0.057
N67E	-0.082 ± 0.075
N67F	0.034 ± 0.18
L61P	-0.943 ± 0.16
L61V	-0.052 ± 0.041
L61Q	0.111 ± 0.044
L61E	0.091 ± 0.033
L61G	-0.504 ± 0.044
L61C	0.022 ± 0.063
L61N	-0.278 ± 0.13
L61D	0.02 ± 0.07
L61K	0.266 ± 0.039
L61I	0.012 ± 0.089
L61T	0.139 ± 0.044
L61M	0.001 ± 0.065

Variant	abundance fitness
L61F	-0.074 ± 0.097
L61W	-0.238 ± 0.054
L61R	0.253 ± 0.033
L61S	0.084 ± 0.039
T53I	-0.125 ± 0.12
T53R	-0.007 ± 0.031
T53W	-0.274 ± 0.049
T53G	-0.308 ± 0.036
T53S	-0.041 ± 0.042
T53V	-0.118 ± 0.039
T53H	-0.491 ± 0.15
T53C	-0.137 ± 0.071
T53P	-0.777 ± 0.12
T53Q	-0.075 ± 0.053
T53A	-0.126 ± 0.036
T53D	-0.51 ± 0.11
T53Y	-0.129 ± 0.13
T53N	-0.385 ± 0.16
T53F	-0.321 ± 0.12
T53K	0.075 ± 0.049
T53M	-0.063 ± 0.056
S55Q	-0.336 ± 0.051
S55M	-0.536 ± 0.1
S55N	-0.017 ± 0.07

Variant	abundance fitness
S55P	-0.102 ± 0.049
S55K	-0.25 ± 0.046
S55Y	-0.119 ± 0.17
S55C	-0.252 ± 0.069
S55I	-0.882 ± 0.31
S55W	-0.575 ± 0.065
S55E	-0.086 ± 0.034
S55D	-0.13 ± 0.068
S55L	-0.786 ± 0.1
S55V	-0.396 ± 0.056
S55H	-0.047 ± 0.085
S55F	-0.551 ± 0.33
S55A	-0.239 ± 0.042
S55G	-0.21 ± 0.034
S55T	0.001 ± 0.047
Q63V	-0.019 ± 0.046
Q63W	-0.28 ± 0.082
Q63K	0.223 ± 0.069
Q63M	-0.04 ± 0.07
Q63L	0.116 ± 0.06
Q63I	0.064 ± 0.12
Q63P	-1.17 ± 0.27
Q63A	-0.077 ± 0.045
Q63G	-0.264 ± 0.058

Variant	abundance fitness
Q63E	-0.002 ± 0.061
Q63D	0.091 ± 0.12
Q63F	-0.175 ± 0.12
Q63H	-0.124 ± 0.23
Q63Y	-0.469 ± 0.22
Q63C	-0.078 ± 0.11
Q63T	0.006 ± 0.053
Y64K	0.233 ± 0.074
Y64L	-0.031 ± 0.078
Y64T	0.287 ± 0.059
Y64P	-0.312 ± 0.13
Y64V	0.121 ± 0.05
Y64F	-0.266 ± 0.23
Y64G	0.212 ± 0.038
Y64Q	0.14 ± 0.098
Y64H	0.064 ± 0.14
Y64W	-0.209 ± 0.11
Y64M	-0.098 ± 0.11
Y64R	0.28 ± 0.043
Y64C	0.195 ± 0.09
Y64D	0.411 ± 0.072
Y64S	0.24 ± 0.05
Y64E	0.298 ± 0.053
Y64N	0.328 ± 0.082

Variant	abundance fitness
Q49Y	-0.543 ± 0.12
I59C	0.098 ± 0.068
I59G	-0.66 ± 0.051
I59E	-0.626 ± 0.081
I59Q	-0.421 ± 0.08
I59N	-0.423 ± 0.22
I59D	-0.567 ± 0.29
I59W	-0.752 ± 0.082
I59V	0.063 ± 0.047
I59M	-0.477 ± 0.12
I59K	-0.323 ± 0.092
I59P	-0.764 ± 0.098
I59A	-0.044 ± 0.035
I59Y	-0.93 ± 0.42
I59L	-0.355 ± 0.061
I59T	-0.008 ± 0.044
A68L	-0.206 ± 0.084
A68N	0.163 ± 0.14
A68E	0.21 ± 0.081
A68I	-0.296 ± 0.21
A68Q	0.14 ± 0.11
A68H	0.188 ± 0.2
A68V	-0.185 ± 0.07
A68R	-0.001 ± 0.061

Variant	abundance fitness
A68C	0.271 ± 0.14
A68W	-0.581 ± 0.17
A68F	-0.459 ± 0.35
A68M	-0.032 ± 0.1
A68S	0.048 ± 0.078
A68G	-0.122 ± 0.056
R69C	-0.344 ± 0.18
R69Q	-0.016 ± 0.18
R69G	-0.626 ± 0.14
R69V	-0.479 ± 0.14
R69F	0.355 ± 0.26
R69L	-0.328 ± 0.11
R69K	0.119 ± 0.12
R69A	-0.067 ± 0.1
R69E	-0.371 ± 0.16
R69W	-0.596 ± 0.18
R69M	-0.414 ± 0.21
R69T	-0.079 ± 0.093
R69I	-0.258 ± 0.24
R69H	-0.405 ± 0.17
R69P	-0.701 ± 0.22
R69S	-0.081 ± 0.096
